From US10603364B2, “Lysosomal targeting and uses thereof” (Shire Human Genetic Therapies, Inc., priority 2014, dated 2020)

Columns and labels:
Naglu KO mice [1] = test: Heparan sulfate in brain by LC/MS; type: in vivo; conditions: intrathecal, 520 mg/kg brain, 2× weekly and 3× weekly
Description: (§1) To evaluate the in vivo activity of Naglu-SPP and its efficacy as a therapeutic for the treatment of lysosomal storage diseases, particularly San B, Naglu-SPP was administered to Naglu KO mice via intrathecal injection. Intrathecal administration of Naglu-IGFII served as a positive control. The experimental conditions used for this assay are described in Tables 10 and 11 below.
In a second assay, we evaluation the total amount of heparan sulfate in the brain of treated KO mice. […] To measure heparan sulfate in mouse brain tissue, a highly sensitive LC/MS method was applied (Lawrence et al, 2012, Nat Chem Biol. 2012 Jan. 8; 8(2):197-204). Briefly, total GAG from brain tissue was extracted by a DEAE column and a desalting column, and then dried and weighted. The extracted GAG was treated with heparin lyases that specifically release unique mono, di and tri saccharides of heparan sulfate, and the sample was then analyzed by LC/MS. The released saccharides were identified and quantified using commercially available saccharide standards of heparan sulfate degradation.

Naglu KO mice [2] = test: Sanfillipo B specific biomarkers in brain by LC/MS; type: in vivo; conditions: intrathecal, 520 mg/kg brain, especially 2× weekly and 3× weekly
Description: as §1
Using the same LC/MS technology as used for the quantification of heparin sulfate (see above), the presence of Sanfillipo B specific biomarkers in brains of treated KO mice were evaluated. Naglu deficiency causes the accumulation of certain heparin sulfate degradation products (presented in FIGS. 13A-C) which are natural substrates of Naglu. These biomarkers are the most relevant indications for Naglu deficiency.

[3] = target: T1, recombinant 6×Histidine tagged human SORT1 (Homo sapiens, UniProt Q99523); test: Surface plasmone resonance binding of Naglu-SPP to SORT1
T1 sequence (Q99523 78-831): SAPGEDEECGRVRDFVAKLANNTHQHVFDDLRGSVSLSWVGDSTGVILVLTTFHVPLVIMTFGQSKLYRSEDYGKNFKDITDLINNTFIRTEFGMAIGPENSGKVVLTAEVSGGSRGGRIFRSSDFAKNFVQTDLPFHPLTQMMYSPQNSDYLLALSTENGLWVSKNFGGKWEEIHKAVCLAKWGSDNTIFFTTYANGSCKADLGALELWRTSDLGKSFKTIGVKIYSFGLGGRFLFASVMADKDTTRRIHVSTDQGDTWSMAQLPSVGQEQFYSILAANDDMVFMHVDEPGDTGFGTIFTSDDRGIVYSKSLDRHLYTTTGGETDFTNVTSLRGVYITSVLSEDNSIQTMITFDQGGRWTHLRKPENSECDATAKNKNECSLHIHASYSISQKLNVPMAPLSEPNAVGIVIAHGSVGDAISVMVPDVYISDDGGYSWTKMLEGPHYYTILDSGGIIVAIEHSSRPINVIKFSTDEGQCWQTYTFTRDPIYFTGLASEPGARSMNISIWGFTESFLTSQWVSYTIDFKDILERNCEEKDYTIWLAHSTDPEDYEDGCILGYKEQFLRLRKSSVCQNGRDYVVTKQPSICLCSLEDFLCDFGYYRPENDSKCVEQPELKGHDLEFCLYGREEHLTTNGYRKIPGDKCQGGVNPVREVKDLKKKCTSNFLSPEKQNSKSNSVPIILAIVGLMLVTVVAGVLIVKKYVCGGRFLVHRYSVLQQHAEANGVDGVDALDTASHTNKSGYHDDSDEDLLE
Description: Studies were also carried out to determine the binding properties of Naglu-SPP and evaluate its specificity for SORT1 by surface plasmone resonance (SPR), a commonly used standard technique. Briefly, anti-His mAb (capturing molecule) was diluted in immobilization buffer and bound on the dextran surface of a SPR sensor chip housed in a microfluidic system. Next, a solution containing recombinant 6×Histidine tagged human SORT1 (ligand) was injected into the microflow system and run over the surface-bound anti-His mAbs to form a “capture complex.” A solution containing purified Naglu-SPP protein (analyte) was then injected into the device. As the solution moved over the SPR sensor chip, the analyte bound to the capture complex and an increase in SPR signal (expressed in response units, RU) was observed. Finally, a solution without analyte was injected into the microfluidic device to detach bound […] from the capture complex, resulting in a decrease in SPR signal. The detailed experimental conditions are described in Table 6 below.

B1: Naglu-SPP: Fusion protein of human Naglu and SORT1 propeptide (SPP) via GAG3 linker; SEQ ID NO:17 (full-length), SEQ ID NO:22 (protein)
chain: MEAVAVAAAVGVLLLAGAGGAAGDEAREAAAVRALVARLLGPGPAADFSVSVERALAAKPGLDTYSLGGGGAARVRVRGSTGVAAAAGLHRYLRDFCGCHVAWSGSQLRLPRPLPAVPGELTEATPNRYRYYQNVCTQSYSFVWWDWARWEREIDWMALNGINLALAWSGQEAIWQRVYLALGLTQAEINEFFTGPAFLAWGRMGNLHTWDGPLPPSWHIKQLYLQHRVLDQMRSFGMTPVLPAFAGHVPEAVTRVFPQVNVTKMGSWGHFNCSYSCSFLLAPEDPIFPIIGSLFLRELIKEFGTDHIYGADTFNEMQPPSSEPSYLAAATTAVYEAMTAVDTEAVWLLQGWLFQHQPQFWGPAQIRAVLGAVPRGRLLVLDLFAESQPVYTRTASFQGQPFIWCMLHNFGGNHGLFGALEAVNGGPEAARLFPNSTMVGTGMAPEGISQNEVVYSLMAELGWRKDPVPDLAAWVTSFAARRYGVSHPDAGAAWRLLLRSVYNCSGEACRGHNRSPLVRRPSLQMNTSIWYNRSDVFEAWRLLLTSAPSLATSPAFRYDLLDLTRQAVQELVSLYYEEARSAYLSKELASLLRAGGVLAYELLPALDEVLASDSRFLLGSWLEQARAAAVSEAEADFYEQNSRYQLTLWGPEGNILDYANKQLAGLVANYYTPRWRLFLEALVDSVAQGIPFQQHQFDKNVFQLEQAFVLSKQRYPSQPRGDTVDLAKKIFLKYYPRWVAGSWGAPGGGGGAAAAAGGGGGGAPGGGGGAAAAAGGGGGGAPGGGGGAAAAAGGGGGGAPQDRLDAPPPPAAPLPRWSGPIGVSWGLRAAAAGGAFPRGGRWRR
total amount of heparan sulfate accumulation in brain tissue (Naglu KO mice [1]): strong reduction | accumulation of three GAG cleavage products (San B biomarkers) in brain (Naglu KO mice [2]): dramatic decrease | average association constant (Ka) ([3]; SPR, Naglu-SPP 0 to 20 nM): approximately 1.1×10^6 1/Ms | dissociation constant (Kd) ([3]; SPR, Naglu-SPP 0 to 20 nM): approximately 7.1×10^−4 1/s | binding to SORT1 ([3]; all concentrations tested (0 to 20 nM)): strong binding
